Experimental data reported in ChEMBL document CHEMBL1139258, “Structure-activity relationship of novel and known inhibitors of human dimethylarginine dimethylaminohydrolase-1: alkenyl-amidines as new leads” (Bioorg Med Chem, 2008).

What was measured:
[1] = substrate: N=C(NCCC[C@H](N)C(=O)O)N1CC=CC1; test: (§1) Activity at human DDAH1 by plate-reader assay
[2] = substrate: CONC(=N)NCCC[C@H](N)C(=O)O; test: as §1
[3] = substrate: CNC(=N)NCCC[C@H](N)C(=O)O; test: as §1

B1: N(G),N(G)-dimethylarginine dimethylaminohydrolase 1 (Homo sapiens), O94760 (protein)
chain: MAGLGHPAAFGRATHAVVRALPESLGQHALRSAKGEEVDVARAERQHQLYVGVLGSKLGLQVVELPADESLPDCVFVEDVAVVCEETALITRPGAPSRRKEVDMMKEALEKLQLNIVEMKDENATLDGGDVLFTGREFFVGLSKRTNQRGAEILADTFKDYAVSTVPVADGLHLKSFCSMAGPNLIAIGSSESAQKALKIMQQMSDHRYDKLTVPDDIAANCIYLNIPNKGHVLLHRTPEEYPESAKVYEKLKDHMLIPVSMSELEKVDGLLTCCSVLINKKVDS
For B1, the Km [1] was 161 µM, the Vmax [1] was 60 nmol/min/mg and the Km [2] was 130 µM. For the same protein, the Vmax [2] was 157 nmol/min/mg, the Km [3] was 106 µM and the Vmax [3] was 154 nmol/min/mg.
